Laboratory results published in patent publication US20190062448A1, “ANTI-CD39 ANTIBODIES, COMPOSITIONS COMPRISING ANTI-CD39 ANTIBODIES AND METHODS OF USING ANTI-CD39 ANTIBODIES” (Tizona Therapeutics, priority 2017, published 2019).
“Also recorded” adds a separate entry of the source.

Assays:
hCD39-ECD = molecular target: T1, hCD39-ECD (Homo sapiens, UniProt P49961); test: Epitope binning / competition for hCD39-ECD binding by Bio-Layer Interferometry
T1 sequence (P49961 38-478 limits assumed): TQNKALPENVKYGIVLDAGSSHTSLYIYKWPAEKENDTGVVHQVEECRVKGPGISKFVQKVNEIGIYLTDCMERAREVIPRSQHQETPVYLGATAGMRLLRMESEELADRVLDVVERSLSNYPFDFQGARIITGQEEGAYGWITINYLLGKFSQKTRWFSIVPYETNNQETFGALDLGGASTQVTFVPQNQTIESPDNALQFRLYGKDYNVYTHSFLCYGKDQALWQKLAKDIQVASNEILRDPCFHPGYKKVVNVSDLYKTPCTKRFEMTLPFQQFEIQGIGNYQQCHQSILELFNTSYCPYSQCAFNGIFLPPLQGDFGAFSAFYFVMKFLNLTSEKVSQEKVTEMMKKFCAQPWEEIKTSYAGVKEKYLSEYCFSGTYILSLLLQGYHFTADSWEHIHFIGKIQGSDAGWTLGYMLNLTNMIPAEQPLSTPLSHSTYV
Excerpt: A1 antibody was immobilized onto an Anti-Mouse IgG Fc Capture (AMC) biosensor (ForteBio). Association of hCD39-ECD was then monitored for 180 seconds via Bio-Layer Interferometry (BLI) using the Octet system (ForteBio), at which point the biosensor was dipped into competitor antibody and monitored for another 180 seconds.
The methods are the same as set forth above except that instead of A1, the representative antibody was immobilized using anti-human IgG Fc Capture (AHC) biosensor.
Also, an 18 hour incubation was used with the antibody or isotype control. Finally, an additional 30 second baseline dip in buffer between antigen capture and dipping into a second competitor antibody for 300 seconds was used.

[1] = molecular target: T2, human-mouse CD39 chimeras (Homo sapiens, UniProt P49961, D150A/E143Q/E153S/L144S/N158S/R147E/R154T/S157K/V151A); test: Binding to human-mouse CD39 chimeras and point mutants expressed in CHO cells (FACS); conditions: 15 μg/ml antibody
T2 construct: expressed in transfected cells; host or cells: CHO cells
T2 sequence (P49961 1-510 E143Q/L144S/R147E/D150A/V151A/E153S/R154T/S157K/N158S): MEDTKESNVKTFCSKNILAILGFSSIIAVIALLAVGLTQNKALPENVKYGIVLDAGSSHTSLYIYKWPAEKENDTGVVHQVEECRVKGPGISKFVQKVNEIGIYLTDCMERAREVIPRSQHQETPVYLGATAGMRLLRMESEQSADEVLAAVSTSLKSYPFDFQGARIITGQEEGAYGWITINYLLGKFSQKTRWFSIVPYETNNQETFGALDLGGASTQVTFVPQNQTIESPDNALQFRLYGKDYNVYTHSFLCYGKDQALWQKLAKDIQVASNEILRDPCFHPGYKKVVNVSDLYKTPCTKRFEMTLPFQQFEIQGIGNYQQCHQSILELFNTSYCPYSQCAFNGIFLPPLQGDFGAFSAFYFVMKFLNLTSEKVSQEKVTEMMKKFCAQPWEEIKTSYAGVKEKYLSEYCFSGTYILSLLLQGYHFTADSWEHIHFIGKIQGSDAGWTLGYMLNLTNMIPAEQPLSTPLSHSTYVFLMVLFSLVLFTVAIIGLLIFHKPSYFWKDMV
Description: (§1) Chimeras were generated by replacing human CD39 with mouse CD39 sequence in mammalian expression vectors. The chimeras were expressed in CHO cells and the ability of anti-human CD39 antibodies to bind the chimeras tested via FACS. In brief, cells were washed and blocked in FACS buffer (PBS/2% FBS) for 30 min on ice. They were then incubated with 15 μg/ml anti-human CD39 antibodies diluted in FACS buffer×1 h on ice. After 2 washes, cells were incubated with fluorescently labeled anti-human Fc antibodies, anti-mouse Fc antibodies, or anti-mCD39 antibody (R&D Systems 495826) diluted in FACS buffer per manufacturers' instructions×30 min on ice. After 2 washes, cells were resuspended in FACS buffer and analyzed on BD Fortessa. Data was processed with FlowJo. Positive binding was scored as “yes” and lack of binding was scored as “NO” and examples of FACS plots used to generate this table are in FIGS. 14.F and 14.G.
(§2) Chimeras were generated by mutagenesis of Chimera #2 or WT hCD39 expression vectors. Residues for mutagenesis were chosen based on divergence between human and mouse CD39. The chimeras were expressed in CHO cells and the ability of anti-human CD39 antibodies to bind the chimeras tested via FACS, as described in FIG. 14E. Table 2. Positive binding was scored as “Yes” and lack of binding was scored as “No” and examples of FACS plots used to generate this table are in FIGS. 14.F and 14.G.

[2] = molecular target: T3, human-mouse CD39 chimeras (Homo sapiens, UniProt P49961, E276G/I277V/N275G); test: as above; conditions: 15 μg/ml antibody
T3 construct: expressed in transfected cells; host or cells: CHO cells
T3 sequence (P49961 1-510 N275G/E276G/I277V): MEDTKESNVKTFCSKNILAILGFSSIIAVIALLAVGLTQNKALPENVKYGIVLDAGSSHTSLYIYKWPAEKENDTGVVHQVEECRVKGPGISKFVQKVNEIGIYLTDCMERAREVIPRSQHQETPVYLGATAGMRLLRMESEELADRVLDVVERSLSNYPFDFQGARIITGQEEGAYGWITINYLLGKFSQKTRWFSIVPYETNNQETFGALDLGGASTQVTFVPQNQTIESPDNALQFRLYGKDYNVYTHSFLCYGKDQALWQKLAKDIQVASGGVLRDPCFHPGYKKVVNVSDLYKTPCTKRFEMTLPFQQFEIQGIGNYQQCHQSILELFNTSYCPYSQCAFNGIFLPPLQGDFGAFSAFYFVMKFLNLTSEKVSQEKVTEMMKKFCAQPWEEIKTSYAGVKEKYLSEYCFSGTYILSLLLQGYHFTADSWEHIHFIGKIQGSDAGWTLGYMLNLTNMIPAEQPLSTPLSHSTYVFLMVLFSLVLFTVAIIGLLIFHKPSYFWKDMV
Description: as §1, §2

[3] = system: human-mouse CD39 chimeras; test: as above
Description: as §1, §2

[4] = system: CD4^+ and CD8^+ T cells in stimulated PBMCs; test: Proliferation of anti-CD3+anti-CD28 stimulated T cells (Cell Trace Violet); assay type: cell-based, human; conditions: 50 μM ATP; 96 hours; vs isotype control
Description: Proliferation of CD4^+ and CD8^+ T cells was measured by Cell Trace Violet by flow cytometry.

stimulated human PBMCs = test: Cytokine secretion by anti-CD3+anti-CD28 stimulated PBMCs (Meso Scale Discovery); assay type: cell-based; conditions: 96 hours
Description: Supernatants were harvested after 96 hours and cytokines were measured using a Meso Scale Discovery human cytokine kit.
Supernatants were harvested after 96 hours and analyzed by Meso Scale Discovery human cytokine kit.

[5] = system: CD39^+CD73^+SK-MEL-28 cells; test: Extracellular ATP accumulation in SK-MEL-28 supernatants (AmpGlo Kit); assay type: cell-based, human; conditions: 1 hour treatment; 50 μM ATP for 15 min
Description: (§3) The supernatants were analyzed for ATP levels using AmpGlo Kit (A) and for adenosine levels using LC/MS analysis (B). % Adenosine levels were normalized to isotype control (100%) and SK-MEL-28 CD39 KO cells (0%).

[6] = system: CD39^+CD73^+SK-MEL-28 cells; test: Adenosine generation by SK-MEL-28 cells (LC/MS); assay type: cell-based, human; conditions: normalized to isotype control (100%) and CD39 KO cells (0%)
Description: as §3

- binding to Chimera #4 [2]: able to bind all chimeras but Chimera #2
B1: 31895: inhibitory anti-CD39 antibody, contacts E143-N158 incl. D150 and E153 (antibody, V domains shown)
VH: QVQLVQSGAEVKKPGASVKVSCKASGYTFKSYEMHWVRQAPGQGLEWMGRINPSVGSTWYAQKFQGRVTMTRDTSTSTVYMELSSLRSEDTAVYYCARGKREGGTEYLRKWGQGTLVTVSS
VL: EIVLTQSPGTLSLSPGERATLSCRASQSVASSYLAWYQQKPGQAPRLLIYGASNRHTGIPDRFSGSGSGTDFTLTISRLEPEDFAVYYCQQYHNAITFGGGTKVEIK
modifications: Synthetic VH, 31895; Synthetic VL, 31895
notes: D150 and E153
- competition / binning with other anti-CD39 antibody bin groups for ECD binding (hCD39-ECD): do not bin with anti-CD39 antibody bin groups represented by antibodies A1, 27536, or 27549
- binding to Chimera #2 (human E143-N158 replaced by mouse sequence) [1]: able to bind all chimeras but Chimera #2; also recorded: inability to recognize Chimera #2
- binding to Chimera #9,10 (single residues of Chimera #2 reverted to human) [3]: restore the ability
- binding to Chimeras #13,14 (two human residues co-mutated to mouse) [3]: did not impair binding
- % CD4^+ T cell proliferation [4]: increases proliferation
- % CD8^+ T cell proliferation [4]: increases proliferation
- secretion of INF-γ, TNF-α and IL-2 (stimulated human PBMCs; absence of exogenous ATP): increases cytokine secretion
- release of INF-γ, TNF-α, IL-2 and IL-1β (stimulated human PBMCs; fixed concentration of 50 μg/ml, presence of ATP, compared to HAO-391 and HAO mAb4): increased cytokine release by activated PBMCs to a higher degree
- secretion of INF-γ, TNF-α and IL-2 (stimulated human PBMCs; presence of exogenous ATP (50 μM)): increases cytokine secretion
- extracellular ATP accumulation [5]: Increase Extracellular ATP Accumulation
- adenosine generation (% of adenosine levels) [6]: Reduces Adenosine Generation
